The values below come from article PMC5746249.

Assay [1] addresses LC8 dynein light chain (DYNLL2), full-length, His6-tagged (UniProt Q96FJ2). Briefly: SPR; ProteOn XPR36, HTG chip; His6-LC8 immobilised on Ni2+-NTA surface at three densities (1200, 900, 600 RU); peptides injected at five concentrations, 60 ul/min; 20 mM Hepes, 150 mM NaCl, 0.05% Tween-20, 0.1 mM TCEP, 50 uM EDTA, pH 7.5; 1:1 Langmuir model; Kd is the mean of the kinetic and the equilibrium analysis; apparent. (In general: Surface plasmon resonance follows binding to a sensor surface in real time, without labels.)

Assay [2] shares this target. Nature of the assay: SPR; ProteOn XPR36, HTG chip; His6-LC8 immobilised on Ni2+-NTA at three densities (1200, 900, 600 RU); peptides injected at five concentrations, 60 ul/min, 400 s, dissociation 600 s; 20 mM Hepes, 150 mM NaCl, 0.05% Tween-20, 0.1 mM TCEP, 50 uM EDTA, pH 7.5; 1:1 Langmuir global fit; Kd is the mean of the kinetic and the equilibrium analysis, SD from three individual Kd values.

Sequence of LC8 dynein light chain (DYNLL2), full-length, His6-tagged (Q96FJ2 whole entry): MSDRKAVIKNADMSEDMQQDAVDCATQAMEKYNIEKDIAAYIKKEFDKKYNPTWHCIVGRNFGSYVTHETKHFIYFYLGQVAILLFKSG

For “MPHOSPH9 LC8 binding motif peptide (motif start 909)”, the Kd in assay [1] is 1.2 µM. Turning to “MPHOSPH9 LC8 binding motif peptide (start 909)”, the Kd in assay [2] came to 1.2 µM.
